Publication PMC4553633, “RA Acts in a Coherent Feed-Forward Mechanism with Tbx5 to Control Limb Bud Induction and Initiation”

Target: T1, flag-RARα (mRARα);myc-RXRα (mRXRα) (Mus musculus;Mus musculus, UniProt P11416;P28700 1-462;1-467, |)
T1 sequence 1: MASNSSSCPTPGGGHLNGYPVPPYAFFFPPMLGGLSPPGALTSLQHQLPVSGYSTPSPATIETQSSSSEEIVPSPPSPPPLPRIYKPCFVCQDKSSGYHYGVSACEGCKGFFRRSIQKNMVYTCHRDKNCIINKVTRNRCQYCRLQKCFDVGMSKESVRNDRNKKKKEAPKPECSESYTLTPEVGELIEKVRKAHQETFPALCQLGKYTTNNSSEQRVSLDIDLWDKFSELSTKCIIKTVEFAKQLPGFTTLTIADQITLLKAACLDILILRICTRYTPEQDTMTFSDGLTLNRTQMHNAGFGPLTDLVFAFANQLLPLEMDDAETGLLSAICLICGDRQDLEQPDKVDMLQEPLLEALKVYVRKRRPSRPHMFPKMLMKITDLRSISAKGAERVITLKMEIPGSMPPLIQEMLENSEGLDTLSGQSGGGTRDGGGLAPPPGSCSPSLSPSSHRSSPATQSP
T1 sequence 2: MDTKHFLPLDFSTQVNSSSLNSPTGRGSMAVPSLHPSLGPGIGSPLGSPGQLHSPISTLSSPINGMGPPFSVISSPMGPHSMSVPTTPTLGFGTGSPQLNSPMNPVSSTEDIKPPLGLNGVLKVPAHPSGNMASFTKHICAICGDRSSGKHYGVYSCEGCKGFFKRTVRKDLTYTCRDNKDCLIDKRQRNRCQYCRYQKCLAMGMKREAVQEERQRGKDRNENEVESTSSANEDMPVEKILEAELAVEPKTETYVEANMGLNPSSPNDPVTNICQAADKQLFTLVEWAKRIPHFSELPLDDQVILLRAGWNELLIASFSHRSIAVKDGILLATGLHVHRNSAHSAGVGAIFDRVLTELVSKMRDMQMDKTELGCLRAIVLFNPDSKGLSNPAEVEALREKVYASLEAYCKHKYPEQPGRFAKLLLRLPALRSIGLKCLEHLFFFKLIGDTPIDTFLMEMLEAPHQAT
Assay: EMSA; EMSA essentially as Forman et al. 1992 and Shtutman et al. 1999; buffer, salt, pH and temperature not stated
Conditions: protein: ivt;ivt; tags: N-terminal flag;N-terminal myc; copies: 1;1; blunt (complement S6 printed; duplex implied)

B1: RARE3 mut (dsDNA)
DNA 1: CCGGCAGCTGCGATGACTGCTCCCTCCTTA
DNA 2: TAAGGAGGGAGCAGTCATCGCAGCTGCCGG
B1: no binding.
